Target: GST-GSK3β fusion protein (human, UniProt P49841 1-420)
Assay: co-IP

Sequence of GST-GSK3β fusion protein (P49841 whole entry, the tested form may be a part): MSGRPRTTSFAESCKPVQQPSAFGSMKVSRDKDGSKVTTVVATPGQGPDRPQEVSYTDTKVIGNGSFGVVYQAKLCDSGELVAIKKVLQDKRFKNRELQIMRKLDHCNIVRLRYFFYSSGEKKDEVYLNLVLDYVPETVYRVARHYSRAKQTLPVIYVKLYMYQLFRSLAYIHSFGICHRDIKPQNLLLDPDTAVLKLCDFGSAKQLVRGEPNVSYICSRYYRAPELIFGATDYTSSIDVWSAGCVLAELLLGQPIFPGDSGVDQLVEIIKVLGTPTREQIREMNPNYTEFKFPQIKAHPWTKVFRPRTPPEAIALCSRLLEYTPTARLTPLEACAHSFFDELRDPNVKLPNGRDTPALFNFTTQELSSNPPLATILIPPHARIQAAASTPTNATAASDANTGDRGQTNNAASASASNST

B1: GST-FANCL fusion protein (natural protein, human, UniProt Q9NW38 1-375, looked up)
chain: MAVTEASLLRQCPLLLPQNRSKTVYEGFISAQGRDFHLRIVLPEDLQLKNARLLCSWQLRTILSGYHRIVQQRMQHSPDLMSFMMELKMLLEVALKNRQELYALPPPPQFYSSLIEEIGTLGWDKLVYADTCFSTIKLKAEDASGREHLITLKLKAKYPAESPDYFVDFPVPFCASWTPQSSLISIYSQFLAAIESLKAFWDVMDEIDEKTWVLEPEKPPRSATARRIALGNNVSINIEVDPRHPTMLPECFFLGADHVVKPLGIKLSRNIHLWDPENSVLQNLKDVLEIDFPARAILEKSDFTMDCGICYAYQLDGTIPDQVCDNSQCGQPFHQICLYEWLRGLLTSRQSFNIIFGECPYCSKPITLKMSGRKH
binding result: binds

From paper PMC3744951 (Molecular Biology of the Cell, 2013)
